Data from patent US20050260627A1, “Mannosidases and methods for using same” (University of Victoria Innovation and Development …, priority 1999, published 2005).

B1: α-1,2-mannosidase IB: Class I α-1,2-mannosidase from A. nidulans (mnsIB, SEQ ID NO: 6), expressed from vector ANIBSEC (protein)
chain: MRTLLALAAFAGFAAARVPATAITRPVMRSDSRADAVKEAFSHAWDGTTNTAFPHDELHPISNGTGDSRNHWGASAVDALSTAIMMRNATIVNQILDHIAAVDTSKTNAMVSLFETTIRTLAGMISGTDLLKGPAAGLVDDSRVDVLLEQSQNLAEVLKFAFDTPSGVPTNMINITSGGNDGATTNGLAVTGTLVLEWTRLSDLTGNDETARLSQRAEDTLLHPEPAQTEPFPGLIGSAVNIADGKLANGHISWNGGADSTTETLIKMTVTDPERFGLTRDRWVAAAESSINHLASHPSTRPDVTFLATTNEEHQLGLTSQHLTCFDGGSFLLGGTLLDRQDFVDFGLDLVAGCHETTNSTLTGIGPEQFSWDPNGVPDSQKELFERAGFTINSGQTILRPEVIESFTTAWRVTGDGTTLEWVWNAFTNINKTCRTATGFAGLENVNAANGGGRIDNQESFMFAEVLKTSFLTFAPEDDWQVQKGSGNTFVTNTEAHPFKVTTPQ
modifications: Aspergillus nidulans
B2: α-1,2-mannosidase IC: Class I α-1,2-mannosidase from A. nidulans (mnsIC, SEQ ID NO: 18), expressed from vector ANICSEC (protein)
chain: MPRRWSSLISITAIFLVLFFLLHRNTDTPRAANRATNGPANGFARQQSICPSTPPQPPYNRTSTGGFNWGEIPVRYPVSDFIPLSTNSPATLPRIQRSSFPLQSSITKSRQAAVKGAFQRAWTSYTTHAWKADEVRPITAGSRNNFGGWGATLVDNLDTLLIMGLDEEFAAAVDALADIEFSPHSSPSSSQSTINIFETTIRYLGGLLAAYDLTGCRETRLLDKAIQLGEMIYTSFDTENRMPVPRWNLHKAGNGEPQRAAVQGVLAELASSSLEFTRLSQLTGDMRYFDAASRITDLLDSQAGHTRIPGLWPVSVNLQKGDLTRGSTFSFGGMADSAYEYLGKTYRLLGGVGKGPQYERLARNALDAGIRHLLFRPMTPDHADILLPGVAHATSSSVGLEPRTEHLACFVGGMYALAGKLFSNQTYLDTGRKLTDGCIWYYDNSPLGIMPEMFTVPACPSVAECPWDETRGGIYTYVRDGHYFLRPEAMESIFYMWRITGDEKYREAAWRMFTAIEAVTKTEFGNAAVRDVMVEEGNVKREDSMESFWMAETLKYLYLIFGETDLVSLDDWVFNTEAHPLRGAGS
modifications: Aspergillus nidulans

Columns and labels:
[1] = system: A. nidulans α-1,2-mannosidase IB; assay: Effect of EDTA, calcium and deoxymannojirimycin on enzyme activity; assay type: biochemical, Aspergillus nidulans; conditions: for effect of addition on enzyme activity: added to purified α-1,2-mannosidase IB
Protocol: (§1) FIG. 8: Biochemical characterization of purified A. nidulans α-1,2-mannosidase IB (A) and α-1,2-mannosidase IC (B) enzymes. Enzyme activity was assayed by digestion of the synthetic substrate Man-α1,2-Man-OCH3 at 37 °C for 3 hours. Released mannose was detected using a colorimetric glucose oxidase/horseradish peroxidase assay (see Materials and Methods) and measuring absorbance at […].
(§2) The α-mannosidase IB and IC expression vectors were introduced into the genome of A. nidulans strain T580 (ura-) by cotransformation and complementation with the pJR15 vector, which contained the selectable ura marker. It has been shown that when two plasmids are used simultaneously in the transformation of fungal protoplasts (cotransformation), as many as 60% of transformed protoplasts will integrate both of the plasmids into the genome (Wernars et al. 1987, Mol. Gen. Genet., 209: 71-77). Protoplasts were prepared according to the method of Fincham (1989, Microbiol. Rev., 53: 148-170), using Sigma Lysing Enzyme for cell wall digestion. Protoplasts of strain T580 (uridine auxotroph) were co-transformed with 1 μg of the selectable marker pJR15, which converts transformed cells to uridine prototrophy, and with 1 μg of either ANIBSEC or ANICSEC. Transformants were initially screened for integration of […] by selection on minimal media, and positive transformants were then transferred to individual complete media plates. Transformants were selected for prototrophy on uridine deficient minimal media and transferred to complete media plates. To confirm secretion of active recombinant α-1,2-mannosidase IB or IC into the culture media of putative transformants, specific activity assays were performed. After 60-65 hours of incubation, aliquots of culture media were assayed for α-1,2-mannosidase activity and compared to the non-transformed T580 strain. Total culture filtrate protein was precipitated and resuspended in assay buffer. Mannosidase assays were performed using the disaccharide Man-α-1,2-Man-OCH3 as a substrate in a coupled enzyme assay as described earlier (Scaman et al. 1996, Glycobiol., 6: 265-270), with some modifications. Digestion of the substrate was performed in a 30 μl final volume containing 10 mM sodium acetate/acetic acid buffer (pH 5.0) and 3 μl 100 mM disaccharide Man-α-1,2-Man-OCH3 incubated at 37° C. for 3 hours. Released mannose was detected by addition of 30 μl 1.25M Tris-HCl (pH7.6) and 240 μl of developing solution, containing glucose oxidase (55 U/ml), horseradish peroxidase (1 U/ml) and o-dianisidine dihydrochloride (70 μg/ml) followed by incubation at 37° C. for 3 hours. Absorbance measurements at 450 nm were used to determine final color change. A standard curve of free mannose concentrations was determined for comparison.

[2] = system: A. nidulans α-1,2-mannosidase IC; assay: as above; assay type: biochemical, Aspergillus nidulans; conditions: for effect of addition on enzyme activity: added to purified α-1,2-mannosidase IC
Protocol: as §1, §2

[3] = α-1,2-mannosidase specific activity assay of secreted recombinant enzymes (coupled enzyme assay); assay type: biochemical; conditions: purified enzyme; for optimal pH for highest activity: FIG. 8; for specific activity: non-limiting amounts of Man-α-1,2-Man-OCH3, 1 U = 1 nmol mannose per hour
Protocol: as §1
as §2, with “Digestion of the substrate was performed in a 30 μl final volume containing 10 mM sodium acetate/acetic acid buffer (pH 5.0) and 3 μl 100 mM disaccharide Man-α-1,2-Man-OCH3 incubated at 37° C. for 3 hours.” left out, “comparison. […] Protein concentrations were determined by the Bradford method (Bradford 1976, Anal. Biochem., 72: 248-254) and comparison to a bovine serum albumin (BSA) standard curve. […]” for “comparison.”

[4] = Digestion of Man9GlcNAc2, cleavage products by MALDI-TOF mass spectrometry; assay type: biochemical; conditions: for cleavage of Man9GlcNAc2 (substrate specificity): non-limiting conditions, about 100 ng enzyme, 10 pmol Man9GlcNAc2
Protocol: FIG. 9: Partial digestion of Man9GlcNAc2 (M9) with A. nidulans α-1,2-mannosidase IB (A) and A. nidulans α-1,2-mannosidase IC (B) by MALDI-TOF mass spectrometry. Peaks represent parent molecules ionized with sodium (M+Na+). Several different digestion products are produced in each reaction, including Man8GlcNAc2 (M8), Man7GlcNAc2 (M7), Man6GlcNAc2 (M6) and Man5GlcNAc2 (M5).
The substrate specificity of the α-1,2-mannosidase IB and IC from A. nidulans was determined by analyzing the cleavage products of Man9GlcNAc2 by MALDI-TOF mass spectrometry. Approximately 100 ng of either α-1,2-mannosidase IB or IC protein was used to digest 10 pmol of Man9GlcNAc2 (Sigma) in a final volume of 10 μl. Digestion products were analyzed by matrix assisted laser desorption ionization time of flight mass spectrometry (MALDI-TOF-MS) using a Voyager biospectrometry workstation (Applied Biosystems, Foster City Calif.). Samples were mixed in a 1:1 ratio with the matrix (10 mg/ml 2,5-dihydroxybenzoic acid; 50% acetonitrile) and 1 μl was loaded onto a sample plate for analysis. […] Accelerating voltage was 20000V and the grid voltage was set at 94%. Data were analyzed using Data Explorer software (Applied Biosystems, Foster City Calif.). […] This supports the classification of both the α-1,2-mannosidase IB and IC in subgroup 2.
The rate at which various intermediates were produced during the digestion of Man9GlcNAc2 to Man5GlcNAc2 was determined by analyzing the cleavage products during limited time-course experiments (FIG. 9). […] This led to the accumulation of Man7GlcNAc2 and Man6GlcNAc2 intermediates during the progress of the digestion, which were eventually converted to Man5GlcNAc2.

[5] = limited time-course experiments, FIG. 9

Molecule	effect of addition on enzyme activity [1]	effect of addition on enzyme activity [2]	optimal pH for highest activity [3]	specific activity [3]	rate of digestion of Man9GlcNAc2 to intermediates [4, 5]	cleavage of Man9GlcNAc2 (substrate specificity) [4]	other results
O=C(O)CN(CCN(CC(=O)O)CC(=O)O)CC(=O)O [EDTA]	significantly reduced enzyme activity	significantly reduced enzyme activity	–	–	–	–	–
[Ca+2] [calcium]	–	–	–	–	–	–	effect of addition on EDTA-reduced enzyme activity ([1]; added after EDTA, α-1,2-mannosidase IB): restored; effect of addition on EDTA-reduced enzyme activity ([2]; added after EDTA, α-1,2-mannosidase IC): restored
OC[C@H]1NC[C@@H](O)[C@@H](O)[C@@H]1O [deoxymannojirimycin]	significant decrease in activity	significant decrease in activity	–	–	–	–	–
B1	–	–	5.0	7.52 U/μg	rapidly degraded Man9GlcNAc2 to Man7GlcNAc2	cleaved Man9GlcNAc2 completely and efficiently to a Man5GlcNAc2 structure	–
B2	–	–	5.0	4.56 U/µg	rapidly degraded Man9GlcNAc2 to Man7GlcNAc2	cleaved Man9GlcNAc2 completely and efficiently to a Man5GlcNAc2 structure	rate of conversion of Man7GlcNAc2 and Man6GlcNAc2 intermediates to Man5GlcNAc2 [4, 5]: more rapidly than the α-1,2-mannosidase IB enzyme
